experiment: yeast display, Sf9 membrane polyspecificity reagent, FACS + sequencing; frameworks hold sequencing errors
Method in brief: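 Polyreactivity labels are assigned by the sorting gate from which each nanobody was recovered. The gates were low and high (top ~1%), set on anti-HA fluorescence for expression and streptavidin fluorescence for reagent binding. Before sorting, galactose-induced (36–48 hours) yeast display cells were stained for 1 hour at 4 °C with 10% biotinylated, detergent-solubilized Sf9 membrane reagent.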

Sequence | polyreactivity (PSR sort gate)
QVQLVESGGGLVQAGGSLRLSCAASGFTFRDYAMGWYRQAPGKERELVAAISRSGDSTYYADSVKGRFTISRDNAKNTVYLQMNSLKPEDTAVYYYAAKRRYTTYDYWGQGTQVTVSS | high polyreactivity
QVQLVESGGGLVQAGGSLRLSCAASGFTFRDYSMGWYRQAPGKERELVAAMSFSGGRTFYADSVKGRFTISRDNGKNTVYLQMNSLKPEDTAVYFCNAQYLTSRYYPRRNLDYWGQGTQVTVSS | high polyreactivity
QVQLVESGGGLVQAGGSLRLSCAASGFTFRFYAMGRYRQAPGKERELVAAISGSGGSTYYADSVKGRFTISRDNAKNTVFLQMNSLKPEDTAVYYCNAGRWLYWYDRSDYWGQGTQVTVSS | high polyreactivity
QVQLVESGGGLVQAGGSLRLSCAASGFTFRFYAMGWYRQAPGKETELVAAISSSGSRTYYADSVKGRFTISRDTAKNTVYFQMHSLKPEDTAVYYCNTVTSQDRYDYWGQGTHVTVSS | high polyreactivity
QVQLVESGGGLVQAGGSLRLSCAASGFTFRFYVMGWYRQAPGKERELVAAISKRGASTSYADSVKGRFTISRDNAKNTVYLQMNSLKPEDTAVYYCAASAKRGEMGYWGQGTQVTVSS | high polyreactivity
QVQLVESGGGLVQAGGSLRLSCAASGFTFRGNAMGWYRQAPGKERELVAAITRRGGSTYYADSVKGRFTISRDNAKNTVYLQMNSLKPEDTAVYYCARDSPRPPQSSRMAYWGQGTQVTVSS | high polyreactivity
QVQLVESGGGLVQAGGSLRLSCAASGFTFRGNAMGWYRQAPGKERELVAAITSSDDSTYYADSVKGRFTISRDYAKNTVYLQMNSLKPEDTAVYYCAAEGVHYAGDYGTGYDYWGQGTQVTVSS | low polyreactivity
QVQLVESGGGLVQAGGSLRLSCAASGFTFRGNVMGWYRQAPGKERELVAGISSTGSGRTYYADSVKGRFTISRDNAKNTVYLQMNSLKPEDTAVYYCAASRTLRKHRYEYWGQGTQVTVSS | high polyreactivity
QVQLVESGGGLVQAGGSLRLSCAASGFTFRGYAMGWYRQAPGKERELVASITYRGGSTYYADSVKGRFTISRDNAKNTVYLQMNSLKPEDTAVSYCNAGFGGRRRQDAFIGTSIYDYWGQCTQVTVSS | low polyreactivity
QVQLVESGGGLVQAGGSLRLSCAASGFTFRHNTMGWYRQAPGKERELVAAISIGGRTYYADSVKGRFTISRDNAKNTVYLQMNSLKTEDSAVYYCANLSGGQSPGYDYWGQGTQVTVSW | high polyreactivity
QVQLVESGGGLVQAGGSLRLSCAASGFTFRHYAMGWYRQAPGKERELVAGITIRGTTYYADSVKGRFTISRDNAKNTVYLQMNSLKPEDTAVYYCAAAWRLGHLRFNSWGQGTQVTVSS | high polyreactivity
QVQLVESGGGLVQAGGSLRLSCAASGFTFRINAMGWYRQAPGKERELVAAISWSGGSTYYADSVKGRFTISRDNAKNTVYLQMNSLKPEDTAFYYCNKVQSSRYRSQRTFQYGYWGQGTQVTVSS | high polyreactivity
QVQLVESGGGLVQAGGSLRLSCAASGFTFRIYDMGWYRQAPGKERELVAAITNGGSTDYAYSVKGRFTISRDNAKNTVYLQMNSLKTEDNAVYYCAADVTYQVYDLVSVWYDYWGQGTQVTVSS | low polyreactivity
QVQLVESGGGLVQAGGSLRLSCAASGFTFRKNAKGWYRQAPGKERELVAAISSGSGSTYYADSVKGRFTISRDNAKNTVYLQMNSLKPEDNAVYYCNAEAYYTTGYPTSDVFDRYDYWGQGTQVTVSS | low polyreactivity
QVQLVESGGGLVQAGGSLRLSCAASGFTFRKNAMGWYRQAPGKERELVAAISSGTSTYYADSVKGRFTISRDNAKNTVYLQMNSLKPEDTAVYYCNAVSRKVYPGPMDYWGQGTQVTVSS | high polyreactivity
QVQLVESGGGLVQAGGSLRLSCAASGFTFRKYAMGWYRQAPGKERELVAGISWSGGTTYYADSVKGRFTISRDNAKNTVYLQMNSLKPEDTAVYYCNAKRVQVFAGYSYDYWGQGTQVTVSS | high polyreactivity
QVQLVESGGGLVQAGGSLRLSCAASGFTFRKYTMGWYRQAPGKERELVAAISSGFSTNYADSVKGRFTISRDNAKNSVYLQMNSLKPEDTAVYYCAARGGYYQGRYKYGYWGQGTQVTVSS | high polyreactivity
QVQLVESGGGLVQAGGSLRLSCAASGFTFRLYTMGWYRQAPGKDRELVAGISTSGGSTYYADSVKGRFTISRDNAKNTVYLQMNSLKPEDTAVYYCAAQAFTSYDYWGQGTQVTVSS | high polyreactivity
QVQLVESGGGLVQAGGSLRLSCAASGFTFRLYTMGWYRQAPGKERELVAAITYSGDSTYYADSVKGRFTISRDNAKNTVYLQMNSLKPEDTAVYYCAARKYYARYYWGQGTQVTVSS | high polyreactivity
QVQLVESGGGLVQAGGSLRLSCAASGFTFRLYVMGWYREAPGTERELVAALSSRGGSTYYADSVKGRFTISRDNAKYTVYLQMNRLKPDDTAFYYCAADRPRCRETVDYWGHGTQVTVSS | high polyreactivity

Sequence | polyreactivity (PSR sort gate)
QVQLVESGGGLVQAGGSLRLSCAASGFTFRNYAMGWYRQAPGKEREFVAAISFSGGRTYYADSVKGRFTISRDNAKITVYLQMNSLKPEDTAVYFCAKKSYSKYEYWGQGTQVTVSS | low polyreactivity
QVQLVESGGGLVQAGGSLRLSCAASGFTFRNYAMGWYRQAPGKERELVAVIDWSGGRTYYADSVKGRFTISRDNAKNTVYLQMNSLKPEDTAVYYCNAVYGYRAYGGYGYWGQGTQVTVSS | high polyreactivity
QVQLVESGGGLVQAGGSLRLSCAASGFTFRQNAMGWYRQAPGKERELVAAISYSGGRTYYADSVKGRFTISRDNEMNTVYLQMNRLKPEDTAVYYCAVTYGIDYGYEYWGQGTQVTVSS | high polyreactivity
QVQLVESGGGLVQAGGSLRLSCAASGFTFRRNAMGWYRQAPGKEREFVAAITRSGGSTYYADSVKGRFTISRDNAKNTVYLQMNSLKPEDTAVYYCAADLPRWGSYGYGKMDHWGQGTQVTVSS | high polyreactivity
QVQLVESGGGLVQAGGSLRLSCAASGFTFRRNAMGWYRQAPGTERELVAAINVRDGSTYYADSVKGRFTISRDNAKNTVYVQMNSLKPEDTAVYYCAAEFFQGYYWYYYWGQGTQVTVSS | high polyreactivity
QVQLVESGGGLVQAGGSLRLSCAASGFTFRRYAMGWYRPAPGKERELVAAITPNGGSTYYADSVKGRFTISRDNAMNNFYLQMNRLKPEDTAVYYCNAVLYTPVYDGFDSWGQGTQVTVSS | high polyreactivity
QVQLVESGGGLVQAGGSLRLSCAASGFTFRRYAMGWYRQAPGKERELVAAINKSGGSTYYADSVKGRFTISRDNAKNTVYLQMNSLKPEDTAVYYCAKPLTAYSGFDHWGQGTQVTVSS | high polyreactivity
QVQLVESGGGLVQAGGSLRLSCAASGFTFRRYAMGWYRQAPGKERELVAAISGRGGSTYYADSVKGRFTISRDTAKNTVYLQINSLKPEDTAVYYCNDDRYVRWTPGDYWGQGTQVTVSS | high polyreactivity
QVQLVESGGGLVQAGGSLRLSCAASGFTFRRYAMGWYRQAPGKERELVAAISRSGGRTYYADSVKGRFTISRDNAKNTVYLQMNSLKPEDTAVYYCAARYFKPGGAYDSWGQGTQVTVSS | high polyreactivity
QVQLVESGGGLVQAGGSLRLSCAASGFTFRRYAMGWYRQAPGKERELVAAITYSGTRTYYADSVKGRFTISRDIAKNTVYLEMNSLSPEDTAVYYCNAGVGYFVGTYYGFLPYDYWGQGTQVTVSS | high polyreactivity
QVQLVESGGGLVQAGGSLRLSCAASGFTFRRYDMGWYRQAPGKERELVATINRGGSTDYADSVKGRFTISRDNAKNTVYLQLNSLKPEDTAVYYCATRYYSSRTWSEYYYWGQGTQVTVSS | high polyreactivity
QVQLVESGGGLVQAGGSLRLSCAASGFTFRSNAMGWYRQAPGKERELVATISSGGSTYYADSVKGRFTISRDNAKNTVYLQMNSLKPEDTAVYYCAADDLGWWFYSGGEDYDYWGQGTQVTVSS | low polyreactivity
QVQLVESGGGLVQAGGSLRLSCAASGFTFRSYAMGCYRQAPEKEMELVAAISRRGGSTYYADSVKGRFTISRDNAKNTVYLQMNSLKPEDTAVYFCAKDGTGAGTYDYWGQGTQVTVSS | low polyreactivity
QVQLVESGGGLVQAGGSLRLSCAASGFTFRSYAMGWYRQAPGKERELVAAITSTGGRTYYADSVKGRFTISRDTAKNTVYLQMNSLKPEDTAVYYCAAGRKHYAPVHFGYWGQGTQVTVSS | high polyreactivity
QVQLVESGGGLVQAGGSLRLSCAASGFTFRSYDMGWYRQAPGKERELVAAISSTGRTYYADSVKGRFTISRDNAKNTVYLHMYSLNPEDTAVYYCARNIPVSYYRYGYWGQGSQVTVSS | high polyreactivity
QVQLVESGGGLVQAGGSLRLSCAASGFTFRSYTMGWYRQAPGKERELVAAITSGGSTYYADSVKGRFTISRDNAKNTVYLQMNSLKPEDTAVYYCAVTYRWHTFIYDYWGQGTQVTVSS | low polyreactivity
QVQLVESGGGLVQAGGSLRLSCAASGFTFRTNVMGWYRQAPGKERELVASISSTGSTNYADSVKGRFTISRDNAKNTVYLQMNSLKPEDTAVYYCARRYRYRYNYWGQGTQVTVSS | high polyreactivity
QVQLVESGGGLVQAGGSLRLSCAASGFTFRTYAMGWYRQAPGKERELVAAITRNGGTYYADSVKGRFTISRDNAKNTVYLQMHSLNPEDTAVYYCATDPAYWGDQPPEYDYWGQGTQVTVSS | low polyreactivity
QVQLVESGGGLVQAGGSLRLSCAASGFTFRVYAMGWYRQAPGKERELVAAISVRGDSTYYADSVKGRFTISRDNAKNTVYLQMNSLKPEDTAVYYCNAALLGKQYYSNPNYDYWGQGTQVTVSS | high polyreactivity
QVQLVESGGGLVQAGGSLRLSCAASGFTFRWYAMGWYRQAPGKERELVAAIDWSGTTTYADSVKGRFTISRDNAKNTVYLQMNSLKPEDTAVYYCAAVFRRSGYASPYDYWGQGTQVTVSS | high polyreactivity

— the nanobody polyreactivity screen of Harvey et al. (2022)
